One may read the stoichiometry N as the number of molecules, sites or subunits per partner or assembly.

Experimental findings from publication doi:10.1101/098400 (bioRxiv, 2017) are described below.

The data set concerns the molecule itself. As to the kind of experiment: in vitro assembly seen by negative-stain transmission electron microscopy.

B1: Rous Sarcoma Virus capsid protein (RSV CA), wild type (natural protein, Rous Sarcoma Virus (strain Prague C), UniProt P03322 240-476, looked up)
chain: PVVIKTEGPAWTPLEPKLITRLADTVRTKGLRSPITMAEVEALMSSPLLPHDVTNLMRVILGPAPYALWMDAWGVQLQTVIAAATRDPRHPANGQGRGERTNLNRLKGLADGMVGNPQGQAALLRPGELVAITASALQAFREVARLAEPAGPWADIMQGPSESFVDFANRLIKAVEGSDLPPSARAPVIIDCFRQKSQPDIQQLIRTAPSTLTTPGEIIKYVLDRQKTAPLTDQGIA
For the protein B1, the “stoichiometry N” value was determined as 6.
